Drawing on US20220112303A1 (ICHILOV TECH, published 2022), this text covers binding result and Kd for 1 molecule.

In assay [1] the target is T1, CD24 on human cells (HT29, colo257, Panc-1, sh-sy5y, PBMCs) (human, UniProt P25063 27-59).
T1 construct: whole, on cells; also called CD24-positive cells
T1 chain (looked up): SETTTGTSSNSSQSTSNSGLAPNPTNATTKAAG
Description: whole cell ELISA and flow cytometry on HT29 cells (HCT116 as low-CD24 control). For orientation: An ELISA detects its analyte on a solid surface through an enzyme-linked reagent.

The next assay addresses T2, CD24 antigen (UniProt P25063 27-59).
T2 chain: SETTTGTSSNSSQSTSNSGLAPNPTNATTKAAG
The assay is described as follows: Biacore SPR. (In general: In SPR one partner is held on a chip, and binding of the other changes the refractive index at the surface.)

B1: humanized matured NS17 anti-CD24 antibody (antibody, V domains shown)
VH: QVHLQESGPGLVKPSQTLSLTCAVSGYSISSGYTWHWIRQPPGKTVEWIGYIQYTGSTRYNPALRGRLTMSVDTSKNQFSLKLISVTAADTGVYFCARGTTASFDYWGQGTTVTVSS
VL: DIVMTQSPDSLNVSLGERATIRCRSSQSLLYSSDQKNYLTWYQQKPGQPPKLLISWASPRASGVPDRFSGSGSGTDFTLTISSLQAEDVGVYYCQQYFIYPLTFGVGTKLELK
notes: Tested as whole IgG with human CH1-CH3 and Ck, expressed from the pcDNA4-PCMV-TetO2-IgL-PCMV-TetO2-IgH vector; also called matured antibody
For the molecule B1, the binding result in assay [1] was “binds”. In addition, the affinity with CD24 antigen, expressed as Kd, was 18 nM.

What is called Kd is the free concentration of one partner at which half of the binding sites on the other are occupied at equilibrium, for simple one-to-one binding. The low end stands for tighter binding, the high end for weaker binding.
